Test results: patent publication US6858210B1, “Therapeutic and diagnostic domain 1 β2GPI polypeptides and methods of using same” (La Jolla Pharmaceutical Co., priority 1998, dated 2005)
Read-outs that look alike come from different tables or passages of the source.

What was measured:
[1] = system: affinity purified β2GPI-dependent antiphospholipid antibody; experiment: Competitive inhibition ELISA: recombinant β2GPI proteins compete for antibody binding to coated full length recombinant β2GPI; design: species or system human; conditions: for IC50: read-out: 50% (concentration to give 50% inhibition)
Procedure, shortened: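 Wells coated with full-length recombinant β2GPI (10 μg/ml, pH 9.5) and milk-blocked. Serially diluted recombinant β2GPI proteins were co-incubated with a fixed concentration of patient antibody for 1 h at 37 °C. Bound IgG detected with alkaline phosphatase anti-human IgG at OD550; percent inhibition is background-corrected against inhibitor-free wells.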

[2] = system: affinity purified β2GPI-dependent antiphospholipid antibody; experiment: Direct binding ELISA, nickel chelate-coated wells charged with recombinant β2GPI proteins (no cardiolipin); design: species or system human; conditions: O.D. at 550 nm
Procedure, shortened: (§1)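 His-tagged recombinant β2GPI mutants captured on nickel chelate wells in serial dilution (2 h, room temperature), no anionic phospholipid; GST-6his as negative control. Affinity-purified patient antibodies (11 patients) or rabbit anti-β2GPI detected by alkaline phosphatase anti-IgG, OD 550 nm.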

[3] = system: rabbit anti-β2GPI; experiment: Direct binding ELISA, nickel chelate-coated wells, rabbit antibody; conditions: O.D. at 550 nm
Procedure, shortened: as §1

B1: -2345: recombinant β2GPI deletion mutant with domains 2-5 (protein)
chain: GRTPRVCPFAGILENGAVRYTTFEYPNTISFSCNTGFYLNGADSAKCTEEGKWSPELPVCAPIICPPPSIPTFATLRVYKPSAGNNSLYRDTAVFECLPQHAMFGNDTITCTTHGNWTKLPECREVKCPFPSRPDNGFVNYPAKPTLYYKDKATFGCHDGYSLDGPEEIECTKLGNWSAMPSCKASCKLPVKKATVVYQGERVKIQEKFKNGMLHGDKVSFFCKNKEKKCSYTEDAQCIDGTIEVPKCFKEHSSLAFWKTDASDVKPCGHHHHHH
Question: Which “Max (maximum inhibition observed at concentrations tested)” value ([1]; Ab 6203) does the source give for B1 here?
Answer: 10%

Question: What about the IC50 ([1]; Ab 6203) of the same molecule?
Answer: > 57 µM

Question: And the “Max (maximum inhibition observed at concentrations tested)” value ([1]; Ab 6501)?
Answer: 20%

Question: What about the IC50 ([1]; Ab 6501) of the same molecule?
Answer: > 57 µM

Question: What about the “Max (maximum inhibition observed at concentrations tested)” value ([1]; Ab 6509) of the same molecule?
Answer: 20%

Question: What about the IC50 ([1]; Ab 6509) of the same molecule?
Answer: > 16 µM

Question: And the “Max (maximum inhibition observed at concentrations tested)” value ([1]; Ab 6626)?
Answer: 18%

Question: What about the IC50 ([1]; Ab 6626) of the same molecule?
Answer: > 57 µM

Question: And the “Max (maximum inhibition observed at concentrations tested)” value ([1]; Ab 6632)?
Answer: 20%

Question: What about the IC50 ([1]; Ab 6632) of the same molecule?
Answer: > 57 µM

Question: What about the “Max (maximum inhibition observed at concentrations tested)” value ([1]; Ab 6641) of the same molecule?
Answer: 20%

Question: And the IC50 ([1]; Ab 6641)?
Answer: > 16 µM

Question: What about the “Max (maximum inhibition observed at concentrations tested)” value ([1]; Ab 6644) of the same molecule?
Answer: 10%

Question: What about the IC50 ([1]; Ab 6644) of the same molecule?
Answer: > 57 µM

Question: And the “Max (maximum inhibition observed at concentrations tested)” value ([1]; Ab 6652)?
Answer: 40%

Question: And the IC50 ([1]; Ab 6652)?
Answer: > 16 µM

Question: And the “Max (maximum inhibition observed at concentrations tested)” value ([1]; Ab 6701)?
Answer: 10%

Question: What about the IC50 ([1]; Ab 6701) of the same molecule?
Answer: > 16 µM

Question: What about the “Max (maximum inhibition observed at concentrations tested)” value ([1]; Ab 7008) of the same molecule?
Answer: 20%

Question: What about the IC50 ([1]; Ab 7008) of the same molecule?
Answer: > 57 µM

Question: And the “Max (maximum inhibition observed at concentrations tested)” value ([1]; Ab 7015)?
Answer: 10%

Question: And the IC50 ([1]; Ab 7015)?
Answer: > 57 µM

Question: And the “Max (maximum inhibition observed at concentrations tested)” value ([1]; Ab 7101)?
Answer: 5%

Question: What about the IC50 ([1]; Ab 7101) of the same molecule?
Answer: > 57 µM

Question: What about the “Max (maximum inhibition observed at concentrations tested)” value ([1]; Ab 7104) of the same molecule?
Answer: 10%

Question: And the IC50 ([1]; Ab 7104)?
Answer: > 57 µM

Question: What about the “Maximum O.D.” value ([2]; Ab 6203) of the same molecule?
Answer: 0.074

Question: And the “Maximum O.D.” value ([2]; Ab 6501)?
Answer: 0.018

Question: What about the “Maximum O.D.” value ([2]; Ab 6626) of the same molecule?
Answer: 0.008

Question: What about the “Maximum O.D.” value ([2]; Ab 6632) of the same molecule?
Answer: 0.031

Question: And the “Maximum O.D.” value ([2]; Ab 6641)?
Answer: 0.045

Question: And the “Maximum O.D.” value ([2]; Ab 6644)?
Answer: 0.041

Question: And the “Maximum O.D.” value ([2]; Ab 6652)?
Answer: 0.008

Question: What about the “Maximum O.D.” value ([2]; Ab 6701) of the same molecule?
Answer: 0.002

Question: And the “Maximum O.D.” value ([2]; Ab 7008)?
Answer: 0.019

Question: And the “Maximum O.D.” value ([2]; Ab 7015)?
Answer: 0.114

Question: And the “Maximum O.D.” value ([2]; Ab 7101)?
Answer: 0.056

Question: And the “Maximum O.D.” value [3]?
Answer: 1.873
